Reference: patent US20060135432A1, “Agonists and antagonists of conadotropin-releasing hormone-2, and use thereof” (priority 2002, published 2006)
[ ]: non-standard residue; d: D form. dPhe(4-Cl) = N[C@H](Cc1ccc(Cl)cc1)C(=O)O; d2Nal = N[C@H](Cc1ccc2ccccc2c1)C(=O)O; dCit = NC(=O)NCCC[C@@H](N)C(=O)O; d3Pal = N[C@H](Cc1cccnc1)C(=O)O

What was measured:
bfGnRHR-3 (bullfrog) [1] = assay: cell-based or functional assay; conditions: for Log IC50, inhibition of GnRH-2-induced inositol phosphate production in GH3 cells expressing the receptor: scale: log IC50
rat GnRHR (rat) [2] = target: rat GnRHR (rat) (UniProt P30969); assay: cell-based or functional assay; conditions: scale: log IC50
bfGnRHR-3 (bullfrog) [3] = assay: displacement of I^125-GnRH-2 from membranes of GH3 cells expressing bfGnRHR-3; conditions: scale: log IC50
rat GnRHR (rat) [4] = target: rat GnRHR (rat) (UniProt P30969); assay: displacement of I^125-GnRH-2 from membranes of GH3 cells expressing rat GnRHR; conditions: scale: log IC50

rat GnRHR (rat), sequence (P30969 whole entry): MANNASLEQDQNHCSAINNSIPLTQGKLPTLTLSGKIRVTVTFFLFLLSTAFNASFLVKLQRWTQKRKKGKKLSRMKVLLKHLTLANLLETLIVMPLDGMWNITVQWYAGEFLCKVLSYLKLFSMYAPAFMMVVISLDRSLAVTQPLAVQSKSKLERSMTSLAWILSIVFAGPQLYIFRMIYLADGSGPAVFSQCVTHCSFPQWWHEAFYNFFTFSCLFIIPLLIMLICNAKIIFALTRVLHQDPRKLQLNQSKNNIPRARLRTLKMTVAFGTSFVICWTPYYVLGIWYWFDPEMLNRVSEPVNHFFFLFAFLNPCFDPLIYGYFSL

Ac-[d2Nal][dPhe(4-Cl)][d3Pal]SY[dCit]WYP[dA]-NH2 [Trptorelix-1]
inhibition of GnRH-2-induced IP production, sensitivity compared with Cetrorelix (fold more sensitive than Cetrorelix) (bfGnRHR-3 (bullfrog) [1]): 1000
Log IC50, inhibition of GnRH-2-induced inositol phosphate production in GH3 cells expressing the receptor (bfGnRHR-3 (bullfrog) [1]): -8.49
Log IC50, inhibition of GnRH-induced inositol phosphate production in GH3 cells expressing the receptor (rat GnRHR (rat) [2]): -9.27
log IC50 (bfGnRHR-3 (bullfrog) [3]): -11.7
log IC50 (rat GnRHR (rat) [4]): -11.8

Ac-[d2Nal][dPhe(4-Cl)][d3Pal]SY[dCit]LRP[dA]-NH2 [Cetrorelix]
Log IC50, inhibition of GnRH-2-induced inositol phosphate production in GH3 cells expressing the receptor (bfGnRHR-3 (bullfrog) [1]): -6.28
Log IC50, inhibition of GnRH-induced inositol phosphate production in GH3 cells expressing the receptor (rat GnRHR (rat) [2]): -11
log IC50 (bfGnRHR-3 (bullfrog) [3]): -7.11
log IC50 (rat GnRHR (rat) [4]): -12.6
